The values that follow come from patent publication US20120093805A1 (Kyowa Kirin, published 2012).

Positions count from the first letter of the chain named.

By koff is commonly meant the first-order rate constant of dissociation. Lower therefore signals a long-lived complex. The term kon denotes the second-order rate constant of association. Lower therefore signals slow association. What is called EC50 (read off the curve) is the concentration that produces a half-maximal response.

In assay [1] the target is T1, Lec8-produced CD27-Fc (human sugar chain-deficient CD27-Fc) (human, O-linked sugar chains to which galactose is not bound (Tn antigen), from production in Lec8 cells).
T1 construct: also called Lec8-derived CD27-Fc
Put plainly: SPR, Biacore T100; Lec8-derived CD27-Fc amine-coupled to CM5 chip, antibody as analyte, single-cycle kinetics, bivalent analyte model. On the procedure:
In order to kinetically analyze the binding activity of the anti-sugar chain-deficient CD27 chimeric antibodies chimeric KM4026, chimeric KM4028, and chimeric KM4030 to the human sugar chain-deficient CD27-Fc, the binding activity was measured by surface plasmon resonance method (SPR method). All of the following manipulations were carried out using Biacore T100 (manufactured by GE Healthcare Bio-Sciences).
The Lec8-derived CD27-Fc obtained in Example 1(7) was immobilized on a CM5 sensor chip (manufactured by GE Healthcare Bio-Sciences) by amine coupling. Assay samples (chimeric KM4026, chimeric KM4028, chimeric KM4030 and chimeric KM4031), which were serially 3-fold diluted from 9 μg/mL to give 5 different concentrations, were sequentially and continuously added to the CD27-Fc-immobilized chip in order of increasing concentrations, in accordance with an automated program (Single Kinetix), followed by measurement.
Using the analysis software, Biacore T100 Evaluation software (manufactured by Biacore) installed on the apparatus, the analysis was carried out using Bivalent Analyte Model to calculate thereby an association rate constant ka and a dissociation rate constant kd of each antibody for the human sugar chain-deficient CD27-Fc.
(SPR reads the build-up and loss of mass on a sensor chip optically.)

The target of assay [2] is T2, human sugar chain-deficient CD27 expressed on Lec8 cells (human, UniProt P26842 20-260, O-linked sugar chains to which galactose is not bound, from expression in Lec8 cells).
T2 construct: CD27/Lec8-4 and CD27/Lec8-M19 are two clones that carry the same protein; also called CD27/Lec8-4; CD27/Lec8-M19
T2 sequence: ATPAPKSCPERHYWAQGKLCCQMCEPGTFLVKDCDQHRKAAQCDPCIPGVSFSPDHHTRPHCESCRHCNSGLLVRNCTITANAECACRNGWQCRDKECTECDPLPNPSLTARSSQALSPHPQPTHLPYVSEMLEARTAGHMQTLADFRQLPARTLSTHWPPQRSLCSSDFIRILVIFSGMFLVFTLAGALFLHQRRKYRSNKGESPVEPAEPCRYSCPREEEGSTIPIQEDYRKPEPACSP
The assay is described as follows: flow cytometry (FCM) on CD27/Lec8-4 cells [A) (a]. On the procedure:
The CD27/DG44-4, CD27/Lec8-4 and Lec8 cells constructed in the same manner as in Example 2 were used as assay cells. The CD27/DG44-4 subcultured in an HT-medium supplemented with 500 μg/mL of G418, and the CD27/Lec8-4 subcultured in an HT-medium supplemented with 50 nmol/L of MTX and 500 μg/mL of G418 were peeled off using a 0.02% EDTA solution, and then washed with PBS.
After the reaction was complete, centrifugation was carried out twice with PBS, and ALEXA Fluoro 488-labeled anti-human immunoglobulin G(H+L), ALEXA Fluoro 488-labeled anti-mouse immunoglobulin G(H+L) or ALEXA Fluoro 488-labeled anti-human immunoglobulin M(μ) as a secondary antibody was added at a concentration of 50 μL/well, followed by reaction at ice temperature under shading for 30 minutes.
Again, centrifugation was repeated twice using PBS, and the cells were washed and suspended in 500 μL of 1% BSA-PBS. The fluorescence of 510 to 530 nm excited with a 488 nm argon laser was measured by a flow cytometer (manufactured by Beckman Coulter, Cytomics FC500 MPL).
In general terms: In flow cytometry, cells or beads pass a laser one at a time.

Assay [3] deals with T1, Lec8-produced CD27-Fc (human sugar …). The assay is described as follows: SPR, BIACORE T100, as in Example 7(1): Lec8-derived CD27-Fc on CM5 chip, antibody as analyte, bivalent analyte model. On the procedure:
In order to analyze binding activity of anti-sugar chain-deficient CD27 humanized antibody to human sugar chain-deficient CD27 reaction kinetically, it was measured in the same manner as in Example 7(1) using BIACORE T100 (manufactured by BIACORE).

Assay [4] has as its target T2, human sugar chain-deficient CD27 …. Put plainly: flow cytometry (FCM) on CD27/Lec8-M19 cells [A]. How it is done: Reaction specificity of the anti-sugar chain-deficient CD27 humanized antibody was measured in the same manner as in Example 7(2). Regarding the cell lines, the CD27/DG44-4 cell and CD27/Lec8-M19 cell having almost the same antigen expression quantity, prepared by the same method of Example 2, were used as assaying cells.

For assay [5], the target named is T3, sugar chain-deficient cynomolgus CD27 (C-terminal His tag) expressed on Lec8 cells (cynomolgus).
T3 construct: whole, on cells; also called cynomolgus CD27/Lec8 cell; sugar chain-deficient cynomolgus CD27 cell
The assay is described as follows: flow cytometry (FCM) on cynomolgus CD27/Lec8 cells (Example 11(5)) [A]. How it is done:
Binding activity of the anti-sugar chain-deficient CD27 humanized antibodies HV0LV0, HV5LV0 and HV7LV0 for cynomolgus CD27 expression cells was measured by a fluorescent cell staining method (cytometer analysis) in the same manner as in Example 9(1). The cynomolgus CD27/DG44 cell and cynomolgus CD27/Lec8 cell prepared in Example 8 were used as the cynomolgus CD27 expression cells.

B1: anti-sugar chain-deficient CD27 chimeric antibody chimeric KM4031 (antibody, human IgG1, V domains shown)
VH: EVQLVESGGGLVEPGRSMKLSCAASGFTFSDYGMAWVRQAPTKGLEWVATITYDGSIYYRDSVKGRFTISRDNAKSTLYLQMNSLRSEDTATYYCTRDPGLYYFDFWGQGVMVTVSS
VL: DIVMTQSPSSLAVSAGETVTLNCQSSQSLLYSGNQKNYLAWYQQKPGQSPKLLIYWASTRQSGVPDRFIGSGSGTDFTLTISSVQAEDLAIYYCQQYYNTPRTFGGGTKLELK
notes: made in FUT8 knockout CHO cells, no core fucose; also called chimeric KM403I
Take B1: in assay [1], the Kd came out at 0.51 nM, the koff amounted to 0.0002 s⁻¹ and the kon came out at 400000 M⁻¹ s⁻¹.

B2: anti-sugar chain-deficient CD27 chimeric antibody chimeric KM4030 (antibody, human IgG1, V domains shown)
VH: EVQLVESGGGLVQPGRSLKLSCVASGFTFNNYWMTWIRQAPGKGLEWIASITNSGGSTYYPDSVKGRFTISRDNAKGTLYLQMNSLRSEDTATYYCTRDVNTYYGYNALFDYWGQGVMVTVSS
VL: DIQMTQSPSVLSASVGDRVTLNCKASQNINEYLNWYQQKLGEAPKLLIYNTNNLQTGIPSRFSGSGSGTDFTLTISSLQPEDFAAYFCFQHNSWPYTFGAGTKLELK
notes: made in FUT8 knockout CHO cells, no core fucose; also called anti-sugar chain-deficient CD27 chimeric antibody KM4030
In assay [1], B2 registered a Kd of 1.07 nM, a koff of 0.00034 s⁻¹ and an on-rate (kon) of 290000 M⁻¹ s⁻¹. The “EC50 (read off the curve)” value in assay [2] is approximately 0.1 µg/mL. In assay [3], the Kd is 1.1 nM, the dissociation rate constant (koff) amounted to 0.00082 s⁻¹ and the kon is 740000 M⁻¹ s⁻¹. Further, the “EC50 (read off the curve)” value in assay [4] was approximately 0.2 µg/mL.

B3: anti-sugar chain-deficient CD27 humanized antibody HV5LV0 (antibody, human IgG1, V domains shown)
VH: B2 VH with Q13K, K19R, V23A, T78S, S88A, T93V, Q115L, V117T, M118L
VL: B2 VL with V10S, L21I, N22T, L40P, E42K, I58V, A85T, F87Y, A100Q, L106I
Regarding B3, the “EC50 (read off the curve)” value in assay [5] was approximately 0.2 µg/mL.

B4: anti-sugar chain-deficient CD27 humanized antibody HV7LV0 (antibody, human IgG1, V domains shown)
VH: B2 VH with Q13K, K19R, V23A, T78S, S88A, Q115L, M118L
VL: B2 VL with V10S, L21I, N22T, L40P, E42K, I58V, A85T, F87Y, A100Q, L106I
In the case of B4, the “EC50 (read off the curve)” value in assay [5] is approximately 0.2 µg/mL.

B5: anti-sugar chain-deficient CD27 humanized antibody HV0LV0 (antibody, human IgG1, V domains shown)
VH: EVQLVESGGGLVKPGRSLRLSCAASGFTFSNYWMTWIRQAPGKGLEWVSSITNSGGSTYYPDSVKGRFTISRDNAKNSLYLQMNSLRAEDTAVYYCARDVNTYYGYNALFDYWGLGTLVTVSS
VL: B2 VL with V10S, L21I, N22T, L40P, E42K, I58V, A85T, F87Y, A100Q, L106I
As to B5, in assay [5], the “EC50 (read off the curve)” value is approximately 0.2 µg/mL.
